Assay results from patent US20200055896A1, “SUBSTRATES RECOGNIZED BY FIBROBLAST ACTIVATION PROTEIN (FAP) AND METHODS OF USING THE SAME” (GENENTECH, INC., priority 2017, published 2020).
No end group written: not given here.

Columns and labels:
recombinant human PREP = target: T1, recombinant human PREP (Homo sapiens, UniProt P48147); experiment: FRET-quench assay: probe cleavage by recombinant human PREP; format: biochemical; conditions: 1 nM enzyme
T1 construct: purchased R&D Systems 4308-SE
T1 sequence (P48147 1-710): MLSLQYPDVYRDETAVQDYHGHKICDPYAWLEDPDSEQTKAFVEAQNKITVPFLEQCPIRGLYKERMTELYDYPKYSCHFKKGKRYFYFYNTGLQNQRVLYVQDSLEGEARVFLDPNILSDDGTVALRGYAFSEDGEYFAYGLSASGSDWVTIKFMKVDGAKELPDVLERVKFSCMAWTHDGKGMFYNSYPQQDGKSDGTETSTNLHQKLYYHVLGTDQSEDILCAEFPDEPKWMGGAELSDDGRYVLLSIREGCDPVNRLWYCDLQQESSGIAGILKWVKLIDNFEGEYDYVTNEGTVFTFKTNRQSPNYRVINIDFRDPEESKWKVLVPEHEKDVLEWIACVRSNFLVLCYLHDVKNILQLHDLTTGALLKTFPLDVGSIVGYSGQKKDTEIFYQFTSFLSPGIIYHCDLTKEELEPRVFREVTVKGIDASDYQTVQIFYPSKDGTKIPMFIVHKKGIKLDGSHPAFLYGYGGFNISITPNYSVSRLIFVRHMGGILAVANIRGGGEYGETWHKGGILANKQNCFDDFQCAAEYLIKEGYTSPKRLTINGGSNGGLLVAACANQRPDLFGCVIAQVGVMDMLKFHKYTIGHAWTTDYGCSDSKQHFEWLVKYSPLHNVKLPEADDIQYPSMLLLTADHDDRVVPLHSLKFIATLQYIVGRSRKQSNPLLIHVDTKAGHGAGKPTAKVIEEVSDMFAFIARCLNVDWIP
Excerpt: Human prolyl oligopeptidase (PREP, 4308-SE), DPPIV (1180-SE), DPP9 (5419-SE), and DPPII/DPP7 (3438-SE) proteins were purchased from R&D Systems. Human DPP8 (BML-SE527) protein was purchased from Enzo Life Sciences. N-terminal octa-His-tagged human and mouse FAP proteins containing the extracellular domain (residues L26-D760 and L26-D761, respectively) were purified from the conditioned media of transiently-transfected CHO cells, by immobilized metal affinity chromatography (IMAC), followed by size exclusion chromatography (SEC).
(§1) Peptides of the region flanking the C-terminal human FGF21 cleavage site (VGPSQG) or a variant with D-alanine at P2 (VaPSQG) were synthesized (Anaspec, Inc.), containing an amine-terminal donor (HyLite Fluor 488 or Cy5.5 for aP NIRF) and a dark quencher-acceptor (QXL 520 or QSY21 for aP NIRF) conjugated to a supplementary C-terminal lysine. ANPFAP (Bioconjugate Chem 23:1704-11) and aP NIRF were synthesized by CPC Scientific (Sunnyvale, Calif.). Assays were conducted at 37° C. in 50 mM HEPES (pH 7.2), 150 mM NaCl, 1 mM EDTA, 0.1 mg/ml BSA. The excitation/emission wavelengths of cleaved peptide are 490/520 nm or 675/695 nm for ANPFAP and aP NIRF. Fluorescence was monitored on a Tecan M1000 Pro plate reader in kinetic mode. Except where indicated otherwise, measurements of serum or plasma FAP activity were performed with the peptide substrate concentration at 6 μM and a 10-fold dilution of serum or plasma in assay buffer.

[1] = target: T2, FAP endopeptidase activity in the plasma (Mus musculus, UniProt P97321); experiment: FRET-quench assay: probe cleavage in mouse plasma (Fap WT, heterozygous, KO); format: biochemical, mice
T2 construct: the extracellular domain encoding the active enzyme can be shed from the cell surface; from tissue; host or cells: mouse plasma (C57BL/6 background; Fap +/+, +/-, -/-)
T2 sequence (P97321 24-761 limits assumed): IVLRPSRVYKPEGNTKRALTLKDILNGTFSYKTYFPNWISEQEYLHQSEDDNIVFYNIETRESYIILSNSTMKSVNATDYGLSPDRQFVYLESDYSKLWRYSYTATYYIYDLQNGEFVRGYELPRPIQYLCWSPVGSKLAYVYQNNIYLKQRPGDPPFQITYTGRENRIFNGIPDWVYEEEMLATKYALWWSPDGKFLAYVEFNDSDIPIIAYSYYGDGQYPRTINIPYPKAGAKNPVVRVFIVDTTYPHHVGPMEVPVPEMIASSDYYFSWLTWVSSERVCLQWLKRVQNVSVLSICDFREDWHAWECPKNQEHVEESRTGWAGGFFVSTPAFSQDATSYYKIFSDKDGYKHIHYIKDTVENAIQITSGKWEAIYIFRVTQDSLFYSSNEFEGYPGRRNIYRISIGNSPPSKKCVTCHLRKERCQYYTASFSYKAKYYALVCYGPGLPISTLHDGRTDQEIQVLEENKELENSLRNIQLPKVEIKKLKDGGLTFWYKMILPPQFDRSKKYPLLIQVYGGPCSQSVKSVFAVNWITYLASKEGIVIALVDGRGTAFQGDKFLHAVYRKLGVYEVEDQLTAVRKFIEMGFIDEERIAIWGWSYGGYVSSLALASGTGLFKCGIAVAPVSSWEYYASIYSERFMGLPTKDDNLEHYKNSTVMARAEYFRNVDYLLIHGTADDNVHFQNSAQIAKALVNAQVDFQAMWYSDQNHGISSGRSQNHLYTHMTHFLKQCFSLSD
Protocol: Mouse plasma samples were prepared in K3-EDTA MiniCollect tubes (Greiner Bio-One, 450475) and frozen immediately at −80° C. prior to analysis. Human serum samples were obtained from healthy donors or purchased from Discovery Life Sciences, Inc. (Los Osos, Calif.).
as §1

Substance	cleavage by recombinant human PREP (recombinant human PREP)	probe cleavage in plasma ([1]; Fap KO plasma, plasma diluted 10-fold)	probe cleavage signal in plasma ([1]; WT plasma, plasma diluted 10-fold)	probe cleavage signal in plasma ([1]; heterozygous plasma, plasma diluted 10-fold)	probe cleavage activity in plasma ([1]; plasma from Fap heterozygous mice, 3 μM peptide)	probe cleavage signal in plasma ([1]; plasma from WT (Fap+/+) mice, 3 μM peptide)	probe cleavage activity in plasma ([1]; plasma from homozygous Fap KO mice, 3 μM peptide)
aP probe: FGF21-based peptide VaPSQG (D-alanine at P2) with HyLite Fluor 488 donor and QXL 520 quencher	unable to digest	no cleavage	clear signal	intermediate			
GP probe: human FGF21 cleavage-site peptide VGPSQG with amine-terminal HyLite Fluor 488 donor and QXL 520 quencher on supplementary C-terminal lysine ({HyLite Fluor 488}-VGPSQGK(QXL 520))	readily cleaved				approximately half the activity as that from WT mice	strong signal	even lower, but significant activity
